In PMC5095173, “Disulfide-activated protein kinase G Iα regulates cardiac diastolic relaxation and fine-tunes the Frank–Starling response” (Nature Communications, 2016):

B1: Murc pS257 (protein, UniProt B1PRL5 1-362, looked up)
Caveolae-associated protein 4: MEHNGSASNAGKIHQNRLSSVTEDEDQDAALTIVTVLDRVATVVDSVQASQKRIEERHREMGNAIKSVQIDLLKLSQSHSNTGYVVNKLFEKTRKVSAHIKDVKARVEKQQVRVTKVETKQEEIMKKNKFRVVIFQEDVPCPASLSVVKDRSLPENEEEAEEVFDPPIDLSSDEEYYVEESRSARLRKSGKEHIDHIKKAFSKENMQKTRQNFDKKVSGIRTRIVTPERRERLRQSGERLRQSGERLRQSGERFKKSISNATPSKEAFKIRSLRKPKDPKAEGQEVDRGMGVDIISGSLALGPIHEFHSDGFSETEKEVTKVGYIPQEGGDPPTPEPLKVTFKPQVRVEDDESLLLELKQSS
modifications: phosphorylated at S257
B2: Serbp1 pS391 (protein, UniProt Q9CY58 1-407, looked up)
SERPINE1 mRNA-binding protein …: MPGHLQEGFGCVVTNRFDQLFDDESDPFEVLKAAENKKKEAGGGGVGGPGAKSAAQAAAQTNSNAAGKQLRKESQKDRKNPLPPSVGVADKKEETQPPVALKKEGIRRVGRRPDQQLQGDGKLIDRRAERRPPRERRFEKPLEEKGEGGEFSVDRPIIERPIRGRGGLGRGRGGRGRGMGRGDGFDSRGKREFDRHSGSDRSSFSHYSGLKHEDKRGGSGSHNWGTVKDELTESPKYIQKQISYNCSDLDQSNVTEETPEGEEHPVADTENKENEVEEVKEEGPKEMTLDEWKAIQNKDRAKVEFNIRKPNEGADGQWKKGFVLHKSKSEEAHAEDSVMDHHFRKPANDITSQLEINFGDLGRPGRGGRGGRGGRGRGGRPNRGSRTDKSSASAPDVDDPEAFPALA
modifications: phosphorylated S391
B3: Ptrf pT304 (protein, UniProt P85125 1-392, looked up)
Caveolae-associated protein 1: MEDVTLHIVERPYSGYPDASSEGPEPTPGEARATEEPSGTGSDELIKSDQVNGVLVLSLLDKIIGAVDQIQLTQAQLEERQAEMEGAVQSIQGELSKLGKAHATTSNTVSKLLEKVRKVSVNVKTVRGSLERQAGQIKKLEVNEAELLRRRNFKVMIYQDEVKLPAKLSVSKSLKESEALPEKEGDELGEGERPEEDAAAIELSSDEAVEVEEVIEESRAERIKRSGLRRVDDFKKAFSKEKMEKTKVRTRENLEKTRLKTKENLEKTRHTLEKRMNKLGTRLVPVERREKLKTSRDKLRKSFTPDHVVYARSKTAVYKVPPFTFHVKKIREGEVEVLKATEMVEVGPDDDEVGAERGAETDLLRGSSPDVHTLLEITEESDAVLVDKSDSD
modifications: phosphorylated at T304
B4: Ptrf pS169 (protein, UniProt P85125 1-392, looked up)
Caveolae-associated protein 1: MEDVTLHIVERPYSGYPDASSEGPEPTPGEARATEEPSGTGSDELIKSDQVNGVLVLSLLDKIIGAVDQIQLTQAQLEERQAEMEGAVQSIQGELSKLGKAHATTSNTVSKLLEKVRKVSVNVKTVRGSLERQAGQIKKLEVNEAELLRRRNFKVMIYQDEVKLPAKLSVSKSLKESEALPEKEGDELGEGERPEEDAAAIELSSDEAVEVEEVIEESRAERIKRSGLRRVDDFKKAFSKEKMEKTKVRTRENLEKTRLKTKENLEKTRHTLEKRMNKLGTRLVPVERREKLKTSRDKLRKSFTPDHVVYARSKTAVYKVPPFTFHVKKIREGEVEVLKATEMVEVGPDDDEVGAERGAETDLLRGSSPDVHTLLEITEESDAVLVDKSDSD
modifications: phosphorylated at S169
B5: Ptrf pS302 (protein, UniProt P85125 1-392, looked up)
Caveolae-associated protein 1: MEDVTLHIVERPYSGYPDASSEGPEPTPGEARATEEPSGTGSDELIKSDQVNGVLVLSLLDKIIGAVDQIQLTQAQLEERQAEMEGAVQSIQGELSKLGKAHATTSNTVSKLLEKVRKVSVNVKTVRGSLERQAGQIKKLEVNEAELLRRRNFKVMIYQDEVKLPAKLSVSKSLKESEALPEKEGDELGEGERPEEDAAAIELSSDEAVEVEEVIEESRAERIKRSGLRRVDDFKKAFSKEKMEKTKVRTRENLEKTRLKTKENLEKTRHTLEKRMNKLGTRLVPVERREKLKTSRDKLRKSFTPDHVVYARSKTAVYKVPPFTFHVKKIREGEVEVLKATEMVEVGPDDDEVGAERGAETDLLRGSSPDVHTLLEITEESDAVLVDKSDSD
modifications: phosphorylated at S302
B6: Ptrf pS171 (protein, UniProt P85125 1-392, looked up)
Caveolae-associated protein 1: MEDVTLHIVERPYSGYPDASSEGPEPTPGEARATEEPSGTGSDELIKSDQVNGVLVLSLLDKIIGAVDQIQLTQAQLEERQAEMEGAVQSIQGELSKLGKAHATTSNTVSKLLEKVRKVSVNVKTVRGSLERQAGQIKKLEVNEAELLRRRNFKVMIYQDEVKLPAKLSVSKSLKESEALPEKEGDELGEGERPEEDAAAIELSSDEAVEVEEVIEESRAERIKRSGLRRVDDFKKAFSKEKMEKTKVRTRENLEKTRLKTKENLEKTRHTLEKRMNKLGTRLVPVERREKLKTSRDKLRKSFTPDHVVYARSKTAVYKVPPFTFHVKKIREGEVEVLKATEMVEVGPDDDEVGAERGAETDLLRGSSPDVHTLLEITEESDAVLVDKSDSD
modifications: phosphorylated at S171
B7: Micall1 pS307 (protein, UniProt D3ZQL6 1-855, looked up)
MICAL-like protein 1: MAGPRGALLAWCRRQCEGYRGVDIRDLSSSFRDGLAFCAILHRHRPDLLDFQSLSKENVFENNRLAFEVAEKELGIPALLDPNDMVSMSVPDCLSIMTYVSQYYNHFTSSGQAAASPPKPGKDPAAPSPTSTSPAVQPGEEAQGDDLSPDSLSEQGKPQPPSSACAACGQRVHLVQRYLAEGRLYHRHCFRCRQCSSTLVPGSYSSGPEEGTFVCAERCTRLGLGGRSGTRPLSLQKQQPAAAAEAKDGEDSDLSKSVVVVAAEADGLQASSEVQPHTLTKPPLPSKPQDLASPPVSRPTPAPRKASESSALTPPTPRPRSSLQQDGMVEQSVSGDLVNGRLQELPVPKPRGTPKLSERMTAPRKDPPWITLVQTEPKKKPAPLPPSSGPGPLSQASRQVENGGLEEKTQKSPAAEPEPKPYNPFEEEEEEEEASVPAVPSPAPAPPETTPKSLHPWYNITPTSSPKTKKRPAPKAPSASPLVLHASRLSHSEPPSATPSPALSVESLSSESSSHTANTEPSEPPAVPKSSSDPAVHVPGTPGTSANSVTPSAHSSLSSSGELGQPSGEQMPQARTRGSPGTHSTKPFSGATPTPFLLAGDQKSPAPPMGSSSPQMLIKSSCKENPFNRKPSPSTSPTVRKATKGAKPVRPPAPGHGFPLIKRKVQADQYIPEEDIYGEMDSIERQLDALEHSGVLLEEKLRGGANEGSEDDMLVDWFKLIHEKHLLVRRESELIYVFKQQNLEQRQADVEFELRCLLNKPEKDWTDDDRAREKVLMQELMTLIEQRDAIVNCLDEDRQREEEEDKMLETMIKKKDFQREAESDSKKKGKFKTMKVLKLLGNKRDAKSKAPTGKS
modifications: phosphorylated at S307
B8: Mylk3 pS444 (protein, UniProt E9PT87 1-786, looked up)
Myosin light chain kinase 3: MSGVSEEDPEGLGPQGLPALGGACLVTVDKKLNVLTEKVDRLLHFQEDVTEKLQCVCQGMDHLEQGLHRLEASQELGLAGPGSTSPAAAQAAWPEVLELVRAVRQEGAQHGARLEALFKMVVAVDRAITLVGSTIQNSKVDDFILQGTVPWRKGSLADGPEENKEQAEVAGVKPKHVLNTGSVQAATSRALWEESQKQDTPVGTVEGLPLIIDTSLKGADLTQAGASLRQGVEALDPGQEPPPTEAESRLPALASEDTGTTLELSVAIDRISEVLTSLRMSQSAGEGTSSSKPDCSEPGPQPLGPLTTDSDIHSDEGLPRISVRMREMTTPEELFETQGGSPIGSAEAPGPGTVLEDQIPKGARPFPPLPKRSCNNGGASAEEATGPGAEPIRGPSLVTRDWRDEPVGTTDLQQGRDPGAVSPEPGKDHAAQGPGRTEAGRRVSSAAEAAIVVLDDSAAPPAPFEHRVVSIKDTLISTSYTVSQHEVLGGGRFGQVHRCTERSTGLALAAKIIKVKNIKDREDVKNEINIMNQLSHVNLIQLYDAFESKNSFTLIMEYVDGGELFDRITDEKYHLTELDVVLFTRQICEGVHYLHQHYILHLDLKPENILCVSQTGHQIKIIDFGLARRYKPREKLKVNFGTPEFLAPEVVNYEFVSFPTDMWSVGVITYMLLSGLSPFLGETDAETMNFIVNCSWDFDADTFKGLSEEAKDFVSRLLVKEKSCRMSATQCLKHEWLNHLIAKASGSNVRLRSQLLLQKYMAQRKWKKHFHVVTAVNRLRKFPTCP
modifications: phosphorylated at S444
B9: Map4 pT899 (protein, UniProt Q5M7W5 2-1057, looked up)
Microtubule-associated …: ADLSLVDALTEPPPEIEGEIKRDFMAALEAEPYDDIVGETVEKTEFIPLLDGDEKSGNSESKRKPCVDTSQVEDIPSSKPTLLANGDHGVEGNNTTGSPTDFLVENVDYEDYQNSQSWPEDASFCFQPQQVLDTNQADPFNVHHDDGLADLLFVSSGPTNASAFIEENNPLEDSYGVLPCDSFAPTAVVSQEWSVGAPDSPHSEPCVSPEVTIETAQPATELSKAVDLESVKEQLPAKALEMMAGQTTDAVPSKESEGSPDTDAAPGPDTDVTLTKDIEESSSPDVISANVTQPFTESDMFLTQEMELLIGTEAAQVKDTMSSVEPDISSAKNTAPPTEEETVPGKDMTFPKEAETALPIEMDLAPPEDVALPKETELELAPAAGTAPLSETEVALAKDEEPSTGIPAAQEMLLSSETEVVLPSDSIMTLTKEVTVPLEAAGPLVSDMTAILETEMTLGGGTATPTETKLGKVKDMAPLPESEVALGKDVVTLPETKVTEFNNVTPLSEEEVASIKDVSPSPETETAKNADLHSGTELTLDNSMTPPSDPALPLETKVATVQIKDKETVQTQEELSEDSQLESVQLEGQSAVPPCTISPEPVKAADQKSTLPVDEGSPLEKLEQKETSGSQPPELCSGVSRQEEGKAAVGLTGNDIATPPNKELPPSPEKKAKPLATTQPAKTSTSKAKIQPTSLPKQPAPTTSGGLNKKPMSLASGSVPAAPHKRPAAATATARPSTLPARDLKPKPITETKVAEKRTSPSKPSSAPALRPGPKTTPTISKATSPSTLVSTGSSSRSPSTTLPKRPTTTKTEGKPADVKRMTAKSATADLSRSKTTSASSVKRNTTPTGATPPAGMASTRVKPMSAPCRSSVALSVDKKPTSTKPSSSAPRVSRLATTVSAPDLKSVRSKVGSTENMKHQPGGGRVQIQNKKVDISKVSSKCGSKANIKHKPGGGDVKIESQKLNFKEKAQAKVGSLDNVGHLPAGGTVKTEGGGSEAPPCPGPPAGEEPAIPEAAPDAGAPTSASGLSGHTTLSGGGDQREPQTLDSQIQETSI
modifications: phosphorylated at T899

What was measured:
[1] = system: PKGIα (analogue-sensitive C42S/M438G), cGMP-activated; assay: Chemical genetic phosphoproteomic screen, cGMP-activated PKGIα C42S/M438G versus unactivated control; type: biochemical, human PKGIα; substrates in rat heart homogenate; settings: control = PKGIα C42S/M438G
Procedure, shortened: (§1)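 Analogue-sensitive human PKGIα mutants (M438G, air-oxidized to disulfide dimer; C42S/M438G, cGMP-activated), expressed in 293-F cells, thiophosphorylate substrates in rat left-ventricle lysate (20 mg ml) using N6-alkylated ATPγS. Thiophosphopeptides are recovered by covalent capture and identified with sites by LC–MS/MS, each compared against an unactivated control.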

[2] = system: PKGIα (analogue-sensitive M438G), disulfide-activated; assay: Chemical genetic phosphoproteomic screen, disulfide-activated PKGIα M438G versus unactivated control; type: biochemical, human PKGIα; substrates in rat heart homogenate; settings: control = PKGIα C42S/M438G
Procedure, shortened: as §1

| Molecule | log2 fold change cGMP vs Control [1] | log2 fold change Disulfide vs Control [2] |
| --- | --- | --- |
| B1 | 1.807 | 0.9013 |
| B2 | 6.458 | 3.516 |
| B3 | 3.045 | 1.3031 |
| B4 | 4.006 | 2.165 |
| B5 | 3.161 | 1.32 |
| B6 | 3.564 | -0.2713 |
| B7 | 2.266 | 1.417 |
| B8 | 3.077 | 0.1624 |
| B9 | 3.693 | 1.73 |
